According to patent EP4660202A1:

Experiments:
huTregL1-his (human) [1] = target: T1, huTregL1-his (human) (UniProt Q96JA1); assay: cross-linking MS (DSBU), sequence N211-W222 of huTregL1-his, chymotrypsin or trypsin
T1 sequence: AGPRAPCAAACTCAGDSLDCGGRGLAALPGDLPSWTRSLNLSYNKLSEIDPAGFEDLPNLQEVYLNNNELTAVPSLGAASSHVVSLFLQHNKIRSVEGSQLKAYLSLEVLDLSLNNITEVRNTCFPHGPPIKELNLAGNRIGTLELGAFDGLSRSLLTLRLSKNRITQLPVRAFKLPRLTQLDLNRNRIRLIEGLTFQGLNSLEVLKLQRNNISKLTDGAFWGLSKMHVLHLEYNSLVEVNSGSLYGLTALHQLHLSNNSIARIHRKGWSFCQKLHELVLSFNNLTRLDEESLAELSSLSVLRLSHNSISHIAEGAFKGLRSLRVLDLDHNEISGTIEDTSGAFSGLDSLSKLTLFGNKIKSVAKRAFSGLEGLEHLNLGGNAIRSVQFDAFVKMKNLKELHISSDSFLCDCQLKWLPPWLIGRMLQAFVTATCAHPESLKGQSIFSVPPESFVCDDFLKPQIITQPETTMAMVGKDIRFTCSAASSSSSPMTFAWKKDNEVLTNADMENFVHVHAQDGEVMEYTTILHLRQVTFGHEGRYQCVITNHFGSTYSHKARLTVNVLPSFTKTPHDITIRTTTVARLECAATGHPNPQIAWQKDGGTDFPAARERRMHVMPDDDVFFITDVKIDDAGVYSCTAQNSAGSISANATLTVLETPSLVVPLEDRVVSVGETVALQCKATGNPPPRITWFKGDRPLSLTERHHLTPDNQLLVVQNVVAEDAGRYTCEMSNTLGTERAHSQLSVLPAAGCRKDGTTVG

huTregL1-his (human) [2] = target: T1, huTregL1-his (human); assay: covalent labelling MS (DEPC), sequence D111-L134 of huTregL1-his, chymotrypsin-treated group, antigen alone against antigen+antibody
huTregL1-his (human) [3] = target: T1, huTregL1-his (human); assay: cross-linking MS (DSBU), sequence S90-L101 of huTregL1-his, chymotrypsin or trypsin
huTregL1-his (human) [4] = target: T1, huTregL1-his (human); assay: covalent labelling MS (DEPC), sequence E62-L101 of huTregL1-his, antigen alone against antigen+antibody
huTregL1-his (human) [5] = target: T1, huTregL1-his (human); assay: cross-linking MS (DSBU), sequence S362-K365 of huTregL1-his, trypsin-treated group
huTregL1-his (human) [6] = target: T1, huTregL1-his (human); assay: covalent labelling MS (DEPC), sequence Q542-Y553 of huTregL1-his, chymotrypsin-treated group, antigen alone against antigen+antibody
huTregL1-his (human) [7] = target: T1, huTregL1-his (human); assay: cross-linking MS (DSBU), sequence L88-K92 of huTregL1-his, chymotrypsin or trypsin

- T% (peptides of the same sequence detected in the test sample compared to the control) (huTregL1-his (human) [1]): < 2%
- labeling decrease (%) (huTregL1-his (human) [2]): 15.3%
- T% (peptides of the same sequence detected in the test sample compared to the control) (huTregL1-his (human) [3]): < 2%
- labeling decrease (%) (huTregL1-his (human) [4]): 13.2%
- T% (peptides of the same sequence detected in the test sample compared to the control) (huTregL1-his (human) [5]): 0%
- labeling decrease (%) (huTregL1-his (human) [6]): 14.7%
- T% (peptides of the same sequence detected in the test sample compared to the control) (huTregL1-his (human) [7]): < 2%
B1: GTC210-03 clone (antibody, mouse IgG2a, V domains shown)
VH: EVQLLESGGGLVQPGGSLRLSCAASGFTFSSYDMSWVRQAPGKGLEWVSGISPDGSNIYYADSVKGRFTISRDNSKNTLYLQMNSLRAEDTAVYYCAKVGLRCRYEACSYAYGMDVWGQGTLVTVSS
VL: QSVLTQPPSASGTPGQRVTISCSGSSSNIGSNYVSWYQQLPGTAPKLLIYSDSHRPSGVPDRFSGSKSGTSASLAISGLRSEDEADYYCATWDSSLNGYVFGGGTKLTVLR
